This note sets out measurements from the RNAGym collection of RNA variant scans (doi:10.1021/acssynbio.7b00057).

To fix the notation:
B1: Pistol ribozyme (parent)
chain: GGGUCGUUGUUCCAUAAUCGCGUGGAUAUGGCACGCAAGUUUCUACCGGGCACCGUAAAUGUCCGACUGGAGCCGUUCGGGCGGCUAUAAACAGACCUCAGGCCCGAAGCGUGGCGGCACCUGCCGCCGGUGGUAAAAAAGAUCGGAAGAGCACACGUCU

This series covers variants of B1. The series can be described thus: aptazyme ON/OFF ratio, guanine; higher = stronger switching; co-transcriptional cleavage with and without guanine.
Take GGGUCGGAGCGAGAUAAUCGCGUGGAUAUGGCACGCAAGUUUCUACCGGGCACCGUAAAUGUCCGACUGGAGCCGUUCGGGCGGCUAUAAACAGACCUCAGGCCCGAAGCGUGGCGGCACCUGCCGCCGGUGGUAAAAAAGAUCGGAAGAGCACACGUCU [U7G U8A U10C U11G C12A C13G]: the “aptazyme ON/OFF ratio” value turned out to be 1.19.
To GGGUCGGAGCGAAAUAAUCGCGUGGAUAUGGCACGCAAGUUUCUACCGGGCACCGUAAAUGUCCGACUGGAGCCGUUCGGGCGGCUAUAAACAGACCUCAGGCCCGAAGCGUGGCGGCACCUGCCGCCGGUGGUAAAAAAGAUCGGAAGAGCACACGUCU [U7G U8A U10C U11G C12A C13A] belongs 1.19; to GGGUCGGAGCGAUAUAAUCGCGUGGAUAUGGCACGCAAGUUUCUACCGGGCACCGUAAAUGUCCGACUGGAGCCGUUCGGGCGGCUAUAAACAGACCUCAGGCCCGAAGCGUGGCGGCACCUGCCGCCGGUGGUAAAAAAGAUCGGAAGAGCACACGUCU [U7G U8A U10C U11G C12A C13U], 1.37; to GGGUCGGAGCCCAAUAAUCGCGUGGAUAUGGCACGCAAGUUUCUACCGGGCACCGUAAAUGUCCGACUGGAGCCGUUCGGGCGGCUAUAAACAGACCUCAGGCCCGAAGCGUGGCGGCACCUGCCGCCGGUGGUAAAAAAGAUCGGAAGAGCACACGUCU [U7G U8A U10C U11C C13A], 1.05.
On to GGGUCGGAGCCCGAUAAUCGCGUGGAUAUGGCACGCAAGUUUCUACCGGGCACCGUAAAUGUCCGACUGGAGCCGUUCGGGCGGCUAUAAACAGACCUCAGGCCCGAAGCGUGGCGGCACCUGCCGCCGGUGGUAAAAAAGAUCGGAAGAGCACACGUCU [U7G U8A U10C U11C C13G], for which the “aptazyme ON/OFF ratio” value was determined as 1.05.
To GGGUCGGAGCCCUAUAAUCGCGUGGAUAUGGCACGCAAGUUUCUACCGGGCACCGUAAAUGUCCGACUGGAGCCGUUCGGGCGGCUAUAAACAGACCUCAGGCCCGAAGCGUGGCGGCACCUGCCGCCGGUGGUAAAAAAGAUCGGAAGAGCACACGUCU [U7G U8A U10C U11C C13U] belongs 1.01; to GGGUCGGAGGUAGAUAAUCGCGUGGAUAUGGCACGCAAGUUUCUACCGGGCACCGUAAAUGUCCGACUGGAGCCGUUCGGGCGGCUAUAAACAGACCUCAGGCCCGAAGCGUGGCGGCACCUGCCGCCGGUGGUAAAAAAGAUCGGAAGAGCACACGUCU [U7G U8A U10G C12A C13G], 1.11.
As to GGGUCGGAGGUAUAUAAUCGCGUGGAUAUGGCACGCAAGUUUCUACCGGGCACCGUAAAUGUCCGACUGGAGCCGUUCGGGCGGCUAUAAACAGACCUCAGGCCCGAAGCGUGGCGGCACCUGCCGCCGGUGGUAAAAAAGAUCGGAAGAGCACACGUCU [U7G U8A U10G C12A C13U], the “aptazyme ON/OFF ratio” value stood at 1.15.
The result for GGGUCGGAGGUAAAUAAUCGCGUGGAUAUGGCACGCAAGUUUCUACCGGGCACCGUAAAUGUCCGACUGGAGCCGUUCGGGCGGCUAUAAACAGACCUCAGGCCCGAAGCGUGGCGGCACCUGCCGCCGGUGGUAAAAAAGAUCGGAAGAGCACACGUCU [U7G U8A U10G C12A C13A] reads 1.58; that for GGGUCGGAGCGUAAUAAUCGCGUGGAUAUGGCACGCAAGUUUCUACCGGGCACCGUAAAUGUCCGACUGGAGCCGUUCGGGCGGCUAUAAACAGACCUCAGGCCCGAAGCGUGGCGGCACCUGCCGCCGGUGGUAAAAAAGAUCGGAAGAGCACACGUCU [U7G U8A U10C U11G C12U C13A], 1.2; that for GGGUCGGAGCGUGAUAAUCGCGUGGAUAUGGCACGCAAGUUUCUACCGGGCACCGUAAAUGUCCGACUGGAGCCGUUCGGGCGGCUAUAAACAGACCUCAGGCCCGAAGCGUGGCGGCACCUGCCGCCGGUGGUAAAAAAGAUCGGAAGAGCACACGUCU [U7G U8A U10C U11G C12U C13G], 1.29.
As for GGGUCGGAGCGUUAUAAUCGCGUGGAUAUGGCACGCAAGUUUCUACCGGGCACCGUAAAUGUCCGACUGGAGCCGUUCGGGCGGCUAUAAACAGACCUCAGGCCCGAAGCGUGGCGGCACCUGCCGCCGGUGGUAAAAAAGAUCGGAAGAGCACACGUCU [U7G U8A U10C U11G C12U C13U], the “aptazyme ON/OFF ratio” value was determined as 1.42.
GGGUCGGAGCGGAAUAAUCGCGUGGAUAUGGCACGCAAGUUUCUACCGGGCACCGUAAAUGUCCGACUGGAGCCGUUCGGGCGGCUAUAAACAGACCUCAGGCCCGAAGCGUGGCGGCACCUGCCGCCGGUGGUAAAAAAGAUCGGAAGAGCACACGUCU [U7G U8A U10C U11G C12G C13A]: the “aptazyme ON/OFF ratio” value came to 1.26.
As for GGGUCGGAGCGGUAUAAUCGCGUGGAUAUGGCACGCAAGUUUCUACCGGGCACCGUAAAUGUCCGACUGGAGCCGUUCGGGCGGCUAUAAACAGACCUCAGGCCCGAAGCGUGGCGGCACCUGCCGCCGGUGGUAAAAAAGAUCGGAAGAGCACACGUCU [U7G U8A U10C U11G C12G C13U], the “aptazyme ON/OFF ratio” value is 1.05.
The result for GGGUCGGAGCGGGAUAAUCGCGUGGAUAUGGCACGCAAGUUUCUACCGGGCACCGUAAAUGUCCGACUGGAGCCGUUCGGGCGGCUAUAAACAGACCUCAGGCCCGAAGCGUGGCGGCACCUGCCGCCGGUGGUAAAAAAGAUCGGAAGAGCACACGUCU [U7G U8A U10C U11G C12G C13G] reads 1.11; that for GGGUCGGAGCGCGAUAAUCGCGUGGAUAUGGCACGCAAGUUUCUACCGGGCACCGUAAAUGUCCGACUGGAGCCGUUCGGGCGGCUAUAAACAGACCUCAGGCCCGAAGCGUGGCGGCACCUGCCGCCGGUGGUAAAAAAGAUCGGAAGAGCACACGUCU [U7G U8A U10C U11G C13G], 1.26; that for GGGUCGGAGCGCAAUAAUCGCGUGGAUAUGGCACGCAAGUUUCUACCGGGCACCGUAAAUGUCCGACUGGAGCCGUUCGGGCGGCUAUAAACAGACCUCAGGCCCGAAGCGUGGCGGCACCUGCCGCCGGUGGUAAAAAAGAUCGGAAGAGCACACGUCU [U7G U8A U10C U11G C13A], 1.34.
For GGGUCGGAGCGCUAUAAUCGCGUGGAUAUGGCACGCAAGUUUCUACCGGGCACCGUAAAUGUCCGACUGGAGCCGUUCGGGCGGCUAUAAACAGACCUCAGGCCCGAAGCGUGGCGGCACCUGCCGCCGGUGGUAAAAAAGAUCGGAAGAGCACACGUCU [U7G U8A U10C U11G C13U], the “aptazyme ON/OFF ratio” value was 1.41.
